The record followed here is US20040072240A1.

Bounds are passed on as bounds.

The chains are these.
B1: gp100 457 (peptide)
peptide: LLDGTATLRL
modifications: not checked
B2: HER-2/neu 799 (peptide)
peptide: QLMPYGCLL
modifications: not checked
B3: gp100 570 (peptide)
peptide: SLADTNSLAV
modifications: not checked
B4: HER-2/neu 661 (peptide)
peptide: ILLVVVLGV
modifications: not checked
B5: gp100 178 (peptide)
peptide: MLGTHTMEV
modifications: not checked
B6: Tyrosinase 1 (peptide)
peptide: MLLAVLYCL
modifications: not checked
B7: P1Y variant of gp100 178 (peptide)
peptide: YLGTHTMEV
modifications: not checked
B8: gp100 476Y1 (peptide)
peptide: YLYRYGSFSV
modifications: not checked
B9: P1Y variant of Tyrosinase 207 (peptide)
peptide: YLPWHRLFLL
modifications: not checked
B10: P1Y variant of Tyrosinase 1 (peptide)
peptide: YLLAVLYCL
modifications: not checked
B11: HER-2/neu 5Y1 (peptide)
peptide: YLCRWGLLL
modifications: not checked
B12: P1Y variant of HER-2/neu 48 (peptide)
peptide: YLYQGCQVV
modifications: not checked
B13: HER-2/neu 369Y1 (peptide)
peptide: YIFGSLAFL
modifications: not checked
B14: HER-2/neu 661Y1 (peptide)
peptide: YLLVVVLGV
modifications: not checked
B15: P1Y variant of HER-2/neu 773 (peptide)
peptide: YMAGVGSPYV
modifications: not checked
B16: P1Y variant of Tyrosinase 224 (peptide)
peptide: YLTGDENFTI
modifications: not checked
B17: gp100 457Y1 (peptide)
peptide: YLDGTATLRL
modifications: not checked
B18: P1Y variant of HER-2/neu 799 (peptide)
peptide: YLMPYGCLL
modifications: not checked
B19: gp100 177Y1 (peptide)
peptide: YMLGTHTMEV
modifications: not checked
B20: P1Y variant of HER-2/neu 971 (peptide)
peptide: YLVSEFSRM
modifications: not checked
B21: P1Y variant of HER-2/neu 851 (peptide)
peptide: YLVKSPNHV
modifications: not checked
B22: P1Y variant of Mart-1 32 (peptide)
peptide: YLTVILGVL
modifications: not checked
B23: gp100 570Y1 (peptide)
peptide: YLADTNSLAV
modifications: not checked

The first test addresses HLA A2.1 molecule (human). Nature of the test: T2 cells, flow cytometry (BB7.2); reference HIVpol 589.
Consider B1, for which the RA (relative affinity) is 1.6.

The molecule B2 yielded an RA (relative affinity) of 1.

The molecule B3 came in with an RA (relative affinity) of 1.

Consider B4, for which the RA (relative affinity) is over 60.

Regarding B5, the RA (relative affinity) came out at 0.3.

As for B6, the RA (relative affinity) was over 60.

For another test, the target named is HLA A2.1 molecule (human). The experiment in a line: T2 cells, flow cytometry; P1Y variant against its natural peptide.
With B7, the DC50 Y1-DC50 WT was found to be 2 h and the RA WT/RA Y1 was determined as 0.8.

In the case of B8, the DC50 Y1-DC50 WT is 2 h and the RA WT/RA Y1 came to 4.2.

As to B9, the DC50 Y1-DC50 WT is over 4 h and the RA WT/RA Y1 is over 6.4.

In the case of B10, the DC50 Y1-DC50 WT was over 2 h and the RA WT/RA Y1 is over 3.7.

For B11, the DC50 Y1-DC50 WT stood at 0 h and the RA WT/RA Y1 was 1.1.

B12 registered a DC50 Y1-DC50 WT of 0 h and an RA WT/RA Y1 of 3.

Regarding B13, the DC50 Y1-DC50 WT was over 2 h and the RA WT/RA Y1 is 3.9.

B14 had a DC50 Y1-DC50 WT of 2 h and an RA WT/RA Y1 of over 1.5.

B15 returned a DC50 Y1-DC50 WT of 2 h and an RA WT/RA Y1 of 2.

As to B16, the DC50 Y1-DC50 WT is over 2 h and the RA WT/RA Y1 is over 5.1.

Regarding B17, the DC50 Y1-DC50 WT was over 2 h and the RA WT/RA Y1 was found to be 2.3.

As to B18, the DC50 Y1-DC50 WT was over 2 h and the RA WT/RA Y1 was determined as 3.9.

The molecule B19 returned a DC50 Y1-DC50 WT of 2 h and an RA WT/RA Y1 of 0.6.

B20: the DC50 Y1-DC50 WT was 2 h and the RA WT/RA Y1 was 11.6.

Consider B21, for which the DC50 Y1-DC50 WT turned out to be 2 h and the RA WT/RA Y1 was found to be 3.

Consider B22, for which the DC50 Y1-DC50 WT stood at 2 h and the RA WT/RA Y1 worked out at 16.2.

For the molecule B23, the DC50 Y1-DC50 WT is over 2 h and the RA WT/RA Y1 was determined as 3.4.
